The source of these data is publication PMC6703946 (Molecular microbiology, 2019).

The target of the test is T1, Spx with N-terminal His6 tag (S. aureus, UniProt P60379 1-131).
T1 sequence (looked up): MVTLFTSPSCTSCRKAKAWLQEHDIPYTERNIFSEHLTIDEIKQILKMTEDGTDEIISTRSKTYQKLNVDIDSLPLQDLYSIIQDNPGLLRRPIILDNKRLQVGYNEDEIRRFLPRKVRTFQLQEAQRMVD
Put plainly: native gel or EMSA. In general terms: A gel shift assay detects complexes by their altered migration in electrophoresis.

B1: αCTD (residues 245 to 314 of the RNA polymerase α subunit RpoA) (domain or fragment, S. aureus, UniProt Q2FW32 245-314, looked up)
chain: KEKVLEMSIEELDLSVRSYNCLKRAGINSVQELADKSEADMMKVRNLGRKSLEEVKYKLEDLGLGLRKED
As to B1, the binding result is “binds”.
